Positions count from the first letter of the chain named. In names and notes the source's numbering stands.
T1: EsCas13d, nuclease-dead (Eubacterium siraeum, UniProt B0MS50, R295A;H300A;R849A;H854A)
T1 sequence: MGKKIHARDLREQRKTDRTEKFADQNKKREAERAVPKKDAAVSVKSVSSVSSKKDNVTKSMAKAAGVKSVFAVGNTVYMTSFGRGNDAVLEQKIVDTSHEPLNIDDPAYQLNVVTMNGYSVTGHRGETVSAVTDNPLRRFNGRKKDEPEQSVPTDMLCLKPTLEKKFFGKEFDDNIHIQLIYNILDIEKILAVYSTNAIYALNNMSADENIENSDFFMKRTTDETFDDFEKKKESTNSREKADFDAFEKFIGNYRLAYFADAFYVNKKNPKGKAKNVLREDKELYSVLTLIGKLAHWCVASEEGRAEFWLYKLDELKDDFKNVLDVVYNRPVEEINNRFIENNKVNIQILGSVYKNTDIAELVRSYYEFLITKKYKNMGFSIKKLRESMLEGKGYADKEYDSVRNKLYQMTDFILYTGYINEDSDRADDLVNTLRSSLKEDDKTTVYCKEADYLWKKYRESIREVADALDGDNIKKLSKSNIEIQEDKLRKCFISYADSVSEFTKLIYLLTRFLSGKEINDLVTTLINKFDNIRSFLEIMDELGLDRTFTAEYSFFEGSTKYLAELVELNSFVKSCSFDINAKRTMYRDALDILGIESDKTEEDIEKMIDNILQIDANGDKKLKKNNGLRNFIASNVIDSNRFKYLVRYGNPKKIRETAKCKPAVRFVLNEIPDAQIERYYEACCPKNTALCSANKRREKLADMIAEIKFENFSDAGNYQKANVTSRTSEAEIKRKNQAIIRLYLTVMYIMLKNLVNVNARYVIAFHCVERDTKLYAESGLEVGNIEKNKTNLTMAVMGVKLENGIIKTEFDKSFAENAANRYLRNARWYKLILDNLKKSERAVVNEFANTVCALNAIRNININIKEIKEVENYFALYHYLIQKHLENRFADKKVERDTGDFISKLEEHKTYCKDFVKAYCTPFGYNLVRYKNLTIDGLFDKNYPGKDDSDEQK

B1: target 1 C4G,A14G (mixed)
RNA 1: CACCCGUGCAAAAAUGCAGGGGUCUAAAACUGAGCGGAUAACCUCUCUAUGG
RNA 2: GGGAAUGGAUCCACAUCUACGAAUUCGUACCAUAGAGGGGUUAUCCGGUCACCGAGAUCGGAAGAGCACACGU
B2: target 1 C7G,U8G (mixed)
RNA 1: B1 RNA 1
RNA 2: B1 RNA 2 with G38A, U44G, C45G, G48C
B3: target 1 C2A,C6A (mixed)
RNA 1: B1 RNA 1
RNA 2: B1 RNA 2 with G38A, C46A, G48C, C50A
B4: target 1 U3A,U11G (mixed)
RNA 1: B1 RNA 1
RNA 2: B1 RNA 2 with G38A, U41G, G48C, U49A
B5: target 1 insC 3' of 18,insG 3' of 7 (mixed)
RNA 1: B1 RNA 1
RNA 2: GGGAAUGGAUCCACAUCUACGAAUUCGUACCAUACGAGAGGUUAUCGCGCUCACCGAGAUCGGAAGAGCACACGU
B6: target 1 insA 3' of 7 (mixed)
RNA 1: B1 RNA 1
RNA 2: GGGAAUGGAUCCACAUCUACGAAUUCGUACCAUAGAGAGGUUAUCACGCUCACCGAGAUCGGAAGAGCACACGU
B7: target 1 insA 3' of 3,insG 3' of 1 (mixed)
RNA 1: B1 RNA 1
RNA 2: GGGAAUGGAUCCACAUCUACGAAUUCGUACCAUAGAGAGGUUAUCCGCUACAGCCGAGAUCGGAAGAGCACACGU
B8: target 1 G13C,C22U (mixed)
RNA 1: B1 RNA 1
RNA 2: B1 RNA 2 with C30U, G38A, G39C, G48C
B9: target 1 C7A,A16C (mixed)
RNA 1: B1 RNA 1
RNA 2: B1 RNA 2 with A36C, G38A, C45A, G48C
B10: target 1 insU 3' of 17,insA 3' of 12 (mixed)
RNA 1: B1 RNA 1
RNA 2: B5 RNA 2 with C35G, G36U, U42A, A44U, U45A, C46U, G47C
B11: target 1 insA 3' of 3,insC 3' of 1 (mixed)
RNA 1: B1 RNA 1
RNA 2: B7 RNA 2 with G53C
B12: target 1 U11G,C22A (mixed)
RNA 1: B1 RNA 1
RNA 2: B1 RNA 2 with C30A, G38A, U41G, G48C
B13: target 1 insC 3' of 19,insC 3' of 13 (mixed)
RNA 1: B1 RNA 1
RNA 2: B5 RNA 2 with A34C, C35A, G41C, U42G, A44U, U45A, C46U, G47C
B14: target 1 insC 3' of 20,insA 3' of 17 (mixed)
RNA 1: B1 RNA 1
RNA 2: GGGAAUGGAUCCACAUCUACGAAUUCGUACCACUAGAAGAGGUUAUCCGCUCACCGAGAUCGGAAGAGCACACGU
B15: target 1 insG 3' of 18,insA 3' of 13 (mixed)
RNA 1: B1 RNA 1
RNA 2: B14 RNA 2 with C33U, U34A, A35G, A38G, G39A, A40G, G41A
B16: target 1 U10C,U19A (mixed)
RNA 1: B1 RNA 1
RNA 2: B1 RNA 2 with U33A, G38A, U42C, G48C
B17: target 1 G17U,U19A (mixed)
RNA 1: B1 RNA 1
RNA 2: B1 RNA 2 with U33A, G35U, G38A, G48C
B18: target 1 insA 3' of 3,insU 3' of 1 (mixed)
RNA 1: B1 RNA 1
RNA 2: B7 RNA 2 with G53U
B19: target 1 insG 3' of 19,insC 3' of 3 (mixed)
RNA 1: B1 RNA 1
RNA 2: B5 RNA 2 with A34G, C35A, G47C, C48G, G49C, C50U, U51C
B20: target 1 insC 3' of 17,insA 3' of 3 (mixed)
RNA 1: B1 RNA 1
RNA 2: B5 RNA 2 with C35G, G36C, G47C, C48G, G49C, C50U, U51A
B21: target 1 insU 3' of 14,insA 3' of 7 (mixed)
RNA 1: B1 RNA 1
RNA 2: B5 RNA 2 with C35G, G36A, A37G, G38A, A39U, G47A
B22: target 1 insC 3' of 11,insG 3' of 8 (mixed)
RNA 1: B1 RNA 1
RNA 2: B5 RNA 2 with C35G, G36A, A37G, G38A, A39G, G41U, U42C, C46G, G47C
B23: target 1 insC 3' of 14,insA 3' of 8 (mixed)
RNA 1: B1 RNA 1
RNA 2: B5 RNA 2 with C35G, G36A, A37G, G38A, A39C, C46A, G47C
B24: target 1 G5C,U19C (mixed)
RNA 1: B1 RNA 1
RNA 2: B1 RNA 2 with U33C, G38A, G47C, G48C
B25: target 1 A1C,G5U (mixed)
RNA 1: B1 RNA 1
RNA 2: B1 RNA 2 with G38A, G47U, G48C, A51C
B26: target 1 C7U,G17U (mixed)
RNA 1: B1 RNA 1
RNA 2: B1 RNA 2 with G35U, G38A, C45U, G48C
B27: target 1 insA 3' of 22,insC 3' of 9 (mixed)
RNA 1: B1 RNA 1
RNA 2: B5 RNA 2 with C31A, A32C, U33A, A34U, C35A, U45C, C46U, G47C
B28: target 1 insA 3' of 15,insG 3' of 14 (mixed)
RNA 1: B1 RNA 1
RNA 2: B14 RNA 2 with C33U, U34A, A35G, G36A, A37G, G39A, A40G
B29: target 1 insU 3' of 18,insA 3' of 4 (mixed)
RNA 1: B1 RNA 1
RNA 2: B5 RNA 2 with C35U, G47C, C48G, G49C, C50A
B30: target 1 insU 3' of 20,insA 3' of 5 (mixed)
RNA 1: B1 RNA 1
RNA 2: B5 RNA 2 with A34U, C35A, G47C, C48G, G49A
B31: target 1 C6A,A14C (mixed)
RNA 1: B1 RNA 1
RNA 2: B1 RNA 2 with G38C, C46A, G48C
B32: target 1 del5,del15 (mixed)
RNA 1: B1 RNA 1
RNA 2: GGGAAUGGAUCCACAUCUACGAAUUCGUACCAUAGAAGGUUAUCCCUCACCGAGAUCGGAAGAGCACACGU
B33: target 1 del16,del19 (mixed)
RNA 1: B1 RNA 1
RNA 2: B32 RNA 2 with U33A, A34G, A37G, G39U, U41A, A42U, U43C, C45G
B34: target 1 U10G,U11C (mixed)
RNA 1: B1 RNA 1
RNA 2: B1 RNA 2 with G38A, U41C, U42G, G48C
B35: target 1 insC 3' of 13,insG 3' of 2 (mixed)
RNA 1: B1 RNA 1
RNA 2: GGGAAUGGAUCCACAUCUACGAAUUCGUACCAUAGAGAGCGUUAUCCGCUCGACCGAGAUCGGAAGAGCACACGU

molecular target: T1, EsCas13d, nuclease-dead; assay: crRNA (strand 1, pre-loaded); Mg2+; 40 mM Tris-HCl pH 7.5, 150 mM NaCl, 6 mM MgCl2, 1 mM DTT, 0.1% Tween-20, 0.2 mg/ml BSA; 25 C; 10 min per concentration, then washed; settings: tags: His6-TwinStrep-SUMO cleaved; N-terminal SNAP kept (SNAP-Surface 488); label: 3' end held by stalled T7 RNA polymerase

How did the Kd turn out when B1 was run?
The Kd was 0.0132 ± 0.0012 µM.

How did the Kd turn out when B2 was run?
The Kd was 0.0115 ± 0.0009 µM.

For B3, which Kd is on record?
The Kd was 0.00484 ± 0.00028 µM.

How did the Kd turn out when B4 was run?
Its Kd is 0.0122 ± 0.0007 µM.

B5 was tested. Which Kd did it give?
Its Kd is 0.0368 ± 0.0022 µM.

For B6, which Kd is on record?
Its Kd is 0.00549 ± 0.00021 µM.

With B7 as the binder, how does the Kd read?
The Kd was 0.00569 ± 0.00025 µM.

For B8, which Kd is on record?
Its Kd is 0.062 ± 0.019 µM.

For B9, which Kd is on record?
The Kd was 0.0561 ± 0.0027 µM.

With B10 as the binder, how does the Kd read?
Its Kd is 0.037 ± 0.006 µM.

How did the Kd turn out when B11 was run?
Its Kd is 0.023 ± 0.004 µM.

Which Kd does the source give for B12 here?
Its Kd is 0.039 ± 0.008 µM.

For B13, which Kd is on record?
Its Kd is 0.049 ± 0.015 µM.

B14 was tested. Which Kd did it give?
The Kd was 0.0085 ± 0.0008 µM.

How did the Kd turn out when B15 was run?
Its Kd is 0.046 ± 0.006 µM.

Which Kd does the source give for B16 here?
The Kd was 0.1 ± 0.04 µM.

For B17, which Kd is on record?
The Kd was 0.0368 ± 0.0029 µM.

For B18, which Kd is on record?
The Kd was 0.0092 ± 0.0005 µM.

Which Kd does the source give for B19 here?
Its Kd is 0.062 ± 0.008 µM.

Which Kd does the source give for B20 here?
The Kd was 0.053 ± 0.008 µM.

With B21 as the binder, how does the Kd read?
The Kd was 0.0322 ± 0.003 µM.

For B22, which Kd is on record?
Its Kd is 0.064 ± 0.008 µM.

Which Kd does the source give for B23 here?
The Kd was 0.049 ± 0.005 µM.

How did the Kd turn out when B24 was run?
The Kd was 0.032 ± 0.006 µM.

B25 was tested. Which Kd did it give?
Its Kd is 0.033 ± 0.004 µM.

B26 was tested. Which Kd did it give?
Its Kd is 0.0197 ± 0.0018 µM.

For B27, which Kd is on record?
The Kd was 0.0144 ± 0.0006 µM.

With B28 as the binder, how does the Kd read?
The Kd was 0.0106 ± 0.0012 µM.

B29 was tested. Which Kd did it give?
The Kd was 0.0209 ± 0.0017 µM.

For B30, which Kd is on record?
Its Kd is 0.0122 ± 0.0009 µM.

How did the Kd turn out when B31 was run?
The Kd was 0.0117 ± 0.0005 µM.

B32 was tested. Which Kd did it give?
Its Kd is 0.0273 ± 0.0026 µM.

For B33, which Kd is on record?
The Kd was 0.073 ± 0.02 µM.

B34 was tested. Which Kd did it give?
The Kd was 0.0141 ± 0.0006 µM.

With B35 as the binder, how does the Kd read?
Its Kd is 0.0114 ± 0.0005 µM.
